This data set in a line: soluble on expression in E. coli; label from the status in PepcDB or PDB records.
In the case of “MGSSHHHHHHGKTIFVIVPTNEEQVAFLEALAKQDELNFDWQNPPTEPGQPVVILIPSDMVEWFLEMLKAKGIPFTVYVEEGGSENLYFQGGGGGGDRMRQGWLRSSAALLERVHGHLKDQDRIFTNLYNDFGTGIDAAERRGDWYRTKDILLKGHDWVINEIKASGLRGRGGAGFPSGLKWSFMPKKKQDDRPSYIVVNCDESEPGTCKDREIMRHEPHKVVEGALLAGFAMRARYGYIYIRGEFYNEWRSVEKAIHEAYEKGYLGKNACGSGWDFDLYTYRGAGAYICGEETAMIASIEGGQGKPRLKPPFPANVGLYGCPTTVTNCETVAVSPTIIRRGPQWFAQFGRKGNAGTKLFCISGHVNRPCTVEEEMSMPLRELLERHAGGVRGGWDNLLCVIPGGSSCPLIPKHICDDILMDYDALKEAQTGLGTAAVIVMDKSTDVINAIERLSQFYMHESCGQCTPCREGSPWLDKMMKRFVNGNAKKEEIYTLWDVSKQMEGRSICALGTAAAWPVQGLIRHFKPLMEERIERFWEANPHWGQPGSPWRRWKTHRYYTMQKGDRLNWDGKIVRNWN”, the “soluble on expression in E. coli” value was “not soluble”.
The entry for “MPDGWRKMGVLVFYDLPVVSPEQRLAAVRFHKFLLADGFERMHYSIYARYCGSMERAATYERRVEQALPAVGHVNLLKLTDRQMVGMRKWIRGNYRAPENAEFVPPAQYQLFLEHHHHHH” is “not soluble”.
The entry for “MRGGPVNSHDVTDEQWEGLAQVVPLRGRDAWPSAVGHRSIPEAQTEARRRFVVLRVNIFADARDVAETLMRGIPVLLDLTSAETEVAKRVLDFSTGVVFGLASGMHRVDRNVFLLTPPGTEVQGLMEGVGVPGILEHHHHHH” is “not soluble”; for “MEYLFLRRKRTTATSERQKTLLFKAAERQWKEEFAGKETDIRKVDCNIYKGILYQLEIRQVFLDTSLSLKKLSALLETNQTYLSNVVNKYFGCNLKELVNTYRVEYAKELLCSRRCALTELPCSCGFASKSAFYSAFSRIVGVSPLSYQTQERRRHHLQAVNLEHHHHHH” it is “not soluble”; for “MSLPEKLPYLVELSPGRRNHFAYYNYHTYEDGSDSRDKPKLYRLQLSVTEVGTEKLDDNSIQLFGPGIQPHHCDLTNMDGVVTVTPRSMDAETYVEGQRISETTMLQSGMKVQFGASHVFKFVDPSQDHALAKRSVDGGLMVKGPRHKPGIVQETTFDLGGDIHSGTALPTSKSTTRLDSDRVSSASSTAERGMVKPMIRVEQQPDYRRQESRTQDASGPELILPASIEFRESSEDSFLSAIINYTNSSTVHFKLSPTYVLYMACRYVLSNQYRPDISPTERTHKVIAVVNKMVSMMEGVIQKQKNIAGALAFWMANASELLNFIKQDRDLSRITLDAQDVLAHLVQMAFKYLVHCLQSELNNYMPAFLDDPEENSLQRPKIDDVLHTLTGAMSLLRRCRVNAALTIQLFSQLFHFINMWLFNRLVTDPDSGLCSHYWGAIIRQQLGHIEAWAEKQGLELAADCHLSRIVQATTLLTMDKYAPDDIPNINSTCFKLNSLQLQALLQNYHCAPDEPFIPTDLIENVVTVAENTADELARSDGREVQLEEDPDLQLPFLLPEDGYSCDVVRNIPNGLQEFLDPLCQRGFCRLIPHTRSPGTWTIYFEGADYESHLLRENTELAQPLRKEPEIITVTLKKQNGMGLSIVAAKGAGQDKLGIYVKSVVKGGAADVDGRLAAGDQLLSVDGRSLVGLSQERAAELMTRTSSVVTLEVAKQGAIYHGLATLLNQPSPMMQREGHHHHHH” it is “soluble”.
The entry for “MIDKSAFIHPTAIVEDGAVIGANAHIGPFCIVGPQVEIGEGTVLKSHVVVNGQTKIGRDNEIYQFASIGEVNQDLKYAGEPTRVEIGDRNRIRESVTIHRGTVQGGGLTKVGSDNLLMINAHVAHDCTVGNRCILANNATLAGHVSVDDFAIIGGMTAVHQFCIIGAHVMVGGCSGVAQDVPPYVIAQGNHATPFGVNIEGLKRRGFSREGLVAIRNAYKLLYRSGKTLDEAKLEIAELAEKHPEVKAFTEFFERSTRGPIR” is “not soluble”; for “MAHHHHHHMGTLEAQTQGPGSMSAPLAEVDPDIAELLAKELGRQRDTLEMIASENFVPRAVLQAQGSVLTNKYAEGLPGRRYYGGCEHVDVVENLARDRAKALFGAEFANVQPHSGAQANAAVLHALMSPGERLLGLDLANGGHLTHGMRLNFSGKLYENGFYGVDPATHLIDMDAVRATALEFRPKVIIAGWSAYPRVLDFAAFRSIADEVGAKLLVDMAHFAGLVAAGLHPSPVPHADVVSTTVHKTLGGGRSGLIVGKQQYAKAINSAVFPGQQGGPLMHVIAGKAVALKIAATPEFADRQRRTLSGARIIADRLMAPDVAKAGVSVVSGGTDVHLVLVDLRDSPLDGQAAEDLLHEVGITVNRNAVPNDPRPPMVTSGLRIGTPALATRGFGDTEFTEVADIIATALATGSSVDVSALKDRATRLARAFPLYDGLEEWSLVGR” it is “soluble”.

Source of the values: the DeepSol protein solubility set.
